Results as given in paper PMC3020918.

Molecular target: myc-Snc2p (S. cerevisiae) (UniProt P33328)
Experiment: co-IP

UniProt P33328, sequence (P33328 whole entry): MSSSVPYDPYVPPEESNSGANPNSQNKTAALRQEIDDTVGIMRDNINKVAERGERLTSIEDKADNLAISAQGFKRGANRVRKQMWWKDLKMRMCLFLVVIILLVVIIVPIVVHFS

Substance: Sso1/2p (endogenous) (from UniProt P32867 1-290) (natural protein)
- percent reduction of co-precipitation, wt cells at 37°C against 30°C: 10%
